From patent publication WO2006085967A2 (dated 2006)

Key:
[1] = target: T1, extracellular region of human V158 FcγRIIIa with C-terminal 6x His-tag and GST-tag (human, UniProt P08637 17-208); experiment: AlphaScreen competition; fold affinity vs WT
T1 construct: extracellular domain; on glutathione acceptor beads (AlphaScreen) or immobilized on the SPR chip; also called Val158 FcγRIIIa; V158 FcγRllla; not shown: 6x His-tag; GST-tag

[2] = target: T1, extracellular region of human V158 …; experiment: SPR; fold affinity vs WT
[3] = target: T1, extracellular region of human V158 …; experiment: SPR; receptor immobilized, antibody flowed
[4] = target: T1, extracellular region of human V158 …; experiment: only one value in the row
[5] = target: T1, extracellular region of human V158 …; experiment: AlphaScreen competition; fold affinity vs WT (read as two values, 1 and 1.86; could be 11.86)
[6] = target: T1, extracellular region of human V158 …; experiment: SPR; fold affinity vs WT (read as two values, 1 and 1.86; could be 11.86)

B1: E258Y alemtuzumab (antibody)
chain 1: not shown
chain 2: not shown
[1]
  Fold WT (AlphaScreen): 0.64 fold
[2]
  Fold WT (SPR): 1.77 fold

B2: WT alemtuzumab (antibody)
chain 1: not shown
chain 2: not shown
[3]
  Kd: 68 nM

B3: S304T alemtuzumab (antibody)
chain 1: not shown
chain 2: not shown
[4]
  Fold WT (AlphaScreen or SPR): 12.8 fold

B4: V284E alemtuzumab (antibody)
chain 1: not shown
chain 2: not shown
[4]
  Fold WT (AlphaScreen or SPR): 1.51 fold

B5: T260H alemtuzumab (antibody)
chain 1: not shown
chain 2: not shown
[5]
  Fold WT (AlphaScreen): 1 fold
[6]
  Fold WT (SPR): 1.86 fold

B6: E272R alemtuzumab (antibody)
chain 1: not shown
chain 2: not shown
[4]
  Fold WT (AlphaScreen or SPR): 1.38 fold

B7: E283H alemtuzumab (antibody)
chain 1: not shown
chain 2: not shown
[4]
  Fold WT (AlphaScreen or SPR): 2.31 fold
